These results are taken from patent US10358672B2, “7-β-hydroxysteroid dehydrogenase mutants and process for the preparation of ursodeoxycholic acid” (Pharmazell GmbH, priority 2014, dated 2019).

The labels stand for the following.
B1: Collinsella aerofaciens 7β-HSDH mutant [R64E], with His tag, SEQ ID NO:4 (Collinsella aerofaciens ATCC 25986; R64E) (protein)
chain: MNLREKYGEWGLILGATEGVGKAFCEKIAAGGMNVVMVGRREEKLNVLAGEIRETYGVETKVVEADFSQPGAAETVFAATEGLDMGFMSYVACLHSFGKIQDTPWEKHEAMINVNVVTFLKCFHHYMRIFAAQDRGAVINVSSMTGISSSPWNGQYGAGKAFILKMTEAVACECEGTGVDVEVITLGTTLTPSLLSNLPGGPQGEAVMKIALTPEECVDEAFEKLGKELSVIAGQRNKDSVHDWKANHTEDEYIRYMGSFYRDLEHHHHHH
B2: Collinsella aerofaciens 7β-HSDH dual mutant [G39S/R64E], with His tag, SEQ ID NO:6 (Collinsella aerofaciens ATCC 25986; G39S/R64E) (protein)
chain: B1 chain with G39S
B3: Collinsella aerofaciens 7β-HSDH mutant [G39S], with His tag, SEQ ID NO:5 (Collinsella aerofaciens ATCC 25986; G39S) (protein)
chain: B1 chain with G39S, E64R
B4: 7β-HSDH [R64D]: 7β-HSDH mutant, arginine in position 64 exchanged for aspartic acid (D) (protein, UniProt A4ECA9 1-263, looked up, variant R64D)
7beta-hydroxysteroid …: MNLREKYGEWGLILGATEGVGKAFCEKIAAGGMNVVMVGRREEKLNVLAGEIRETYGVETKVVDADFSQPGAAETVFAATEGLDMGFMSYVACLHSFGKIQDTPWEKHEAMINVNVVTFLKCFHHYMRIFAAQDRGAVINVSSMTGISSSPWNGQYGAGKAFILKMTEAVACECEGTGVDVEVITLGTTLTPSLLSNLPGGPQGEAVMKIALTPEECVDEAFEKLGKELSVIAGQRNKDSVHDWKANHTEDEYIRYMGSFYRD
B5: 7β-HSDH [R64Y]: 7β-HSDH mutant, R in position 64 replaced by Y (protein, UniProt A4ECA9 1-263, looked up, variant R64Y)
7beta-hydroxysteroid …: B4 7beta-hydroxysteroid … with D64Y
B6: 7β-HSDH [R64F]: 7β-HSDH mutant, R in position 64 replaced by F (protein, UniProt A4ECA9 1-263, looked up, variant R64F)
7beta-hydroxysteroid …: B4 7beta-hydroxysteroid … with D64F
B7: 7β-HSDH [R64S]: 7β-HSDH mutant, R in position 64 replaced by S (protein, UniProt A4ECA9 1-263, looked up, variant R64S)
7beta-hydroxysteroid …: B4 7beta-hydroxysteroid … with D64S
B8: 7β-HSDH [R64N]: 7β-HSDH mutant, R in position 64 replaced by N (protein, UniProt A4ECA9 1-263, looked up, variant R64N)
7beta-hydroxysteroid …: B4 7beta-hydroxysteroid … with D64N
B9: 7β-HSDH [R64V]: 7β-HSDH mutant, R in position 64 replaced by V (protein, UniProt A4ECA9 1-263, looked up, variant R64V)
7beta-hydroxysteroid …: B4 7beta-hydroxysteroid … with D64V
B10: 7β-HSDH [R64I]: 7β-HSDH mutant, R in position 64 replaced by I (protein, UniProt A4ECA9 1-263, looked up, variant R64I)
7beta-hydroxysteroid …: B4 7beta-hydroxysteroid … with D64I
B11: 7β-HSDH [R64K]: 7β-HSDH mutant, R in position 64 replaced by K (protein, UniProt A4ECA9 1-263, looked up, variant R64K)
7beta-hydroxysteroid …: B4 7beta-hydroxysteroid … with D64K
B12: 7β-HSDH [R64A]: 7β-HSDH mutant, R in position 64 replaced by A (protein, UniProt A4ECA9 1-263, looked up, variant R64A)
7beta-hydroxysteroid …: B4 7beta-hydroxysteroid … with D64A
B13: 7β-HSDH [R64G]: 7β-HSDH mutant, R in position 64 replaced by G (protein, UniProt A4ECA9 1-263, looked up, variant R64G)
7beta-hydroxysteroid …: B4 7beta-hydroxysteroid … with D64G
B14: 7β-HSDH [R64P]: 7β-HSDH mutant, R in position 64 replaced by P (protein, UniProt A4ECA9 1-263, looked up, variant R64P)
7beta-hydroxysteroid …: B4 7beta-hydroxysteroid … with D64P
B15: 7β-HSDH [R64C]: 7β-HSDH mutant, R in position 64 replaced by C (protein, UniProt A4ECA9 1-263, looked up, variant R64C)
7beta-hydroxysteroid …: B4 7beta-hydroxysteroid … with D64C
B16: 7β-HSDH [R64W]: 7β-HSDH mutant, R in position 64 replaced by W (protein, UniProt A4ECA9 1-263, looked up, variant R64W)
7beta-hydroxysteroid …: B4 7beta-hydroxysteroid … with D64W
B17: 7β-HSDH [R64T]: 7β-HSDH mutant, R in position 64 replaced by T (protein, UniProt A4ECA9 1-263, looked up, variant R64T)
7beta-hydroxysteroid …: B4 7beta-hydroxysteroid … with D64T
B18: 7β-HSDH [R64L]: 7β-HSDH mutant, R in position 64 replaced by L (protein, UniProt A4ECA9 1-263, looked up, variant R64L)
7beta-hydroxysteroid …: B4 7beta-hydroxysteroid … with D64L
B19: 7β-HSDH [R64E]: 7β-HSDH mutant, arginine (R) in position 64 replaced by glutamic acid (E); His tag, SEQ ID NO:4 (protein)
chain: B1 chain
modifications: His tag; 7-beta-HSDH R64E Mutant
B20: 7β-HSDH [T17S]: 7β-HSDH mutant, threonine at position 17 replaced by S (protein, UniProt A4ECA9 1-263, looked up, variant T17S)
7beta-hydroxysteroid …: B4 7beta-hydroxysteroid … with T17S, D64R
B21: 7β-HSDH [G39S]: 7β-HSDH mutant which contains serine instead of glycine at position 39; His tag, SEQ ID NO:5 (protein)
chain: B1 chain with G39S, E64R
modifications: His tag; 7-beta-HSDH G39S Mutant

Numbering of substitutions follows the chain as printed. Names may count otherwise.

Sequence of 7β-HSDH obtainable from Collinsella aerofaciens DSM 3979 (A4ECA9 whole entry): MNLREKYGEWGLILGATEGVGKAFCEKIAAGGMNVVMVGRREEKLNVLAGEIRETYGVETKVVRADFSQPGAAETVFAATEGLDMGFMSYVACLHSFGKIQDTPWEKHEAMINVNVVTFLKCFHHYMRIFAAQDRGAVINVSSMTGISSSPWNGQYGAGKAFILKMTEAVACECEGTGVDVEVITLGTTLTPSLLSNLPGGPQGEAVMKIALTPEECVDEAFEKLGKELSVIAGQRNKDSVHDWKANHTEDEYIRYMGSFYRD

Substrate in the first data set: C[C@H](CCC(=O)O)[C@H]1CC[C@H]2[C@@H]3C(=O)C[C@@H]4CC(=O)CC[C@]4(C)[C@H]3CC(=O)[C@]12C
Put plainly: cells, lysate or membranes named. To be noted: other: purified enzyme, 340 nm, 50 mM KPi pH 8.0, substrate DHCA / cofactor NADPH.
For B1, the Km was 81.01 ± 18.9 µM and the Vmax was found to be 41.6 µmol/min/mg.

For the molecule B2, the Km is 349.3 ± 5.23 µM and the Vmax was 54.3 µmol/min/mg.

For B3, the Km amounted to 352.4 ± 42.7 µM and the Vmax worked out at 52 µmol/min/mg.

Substrate in a further data set: NC(=O)C1=CN([C@@H]2O[C@H](COP(=O)(O)OP(=O)(O)OC[C@H]3O[C@@H](n4cnc5c(N)ncnc54)[C@H](OP(=O)(O)O)[C@@H]3O)[C@@H](O)[C@H]2O)C=CC1
Nature of the data set: cells, lysate or membranes named. To be noted: other: purified enzyme, 340 nm, 50 mM KPi pH 8.0, substrate DHCA / cofactor NADPH.
As for B1, the Km was 45.48 ± 3.5 µM and the Vmax amounted to 60.3 µmol/min/mg.

B2: the Km was 76.6 ± 15.9 µM and the Vmax came to 75.5 µmol/min/mg.

On to B3, for which the Km turned out to be 34.5 ± 6.6 µM and the Vmax was determined as 48.8 µmol/min/mg.

System in the next data set: not listed separately
Put plainly: Photometric activity determination of 7β-HSDH and mutants (decrease in absorbance at 340 nm, DHCA reduction with NADPH). The class given is biochemical. To be noted: Table 4, variants modified at position 64; 10 mM DHCA, NADPH, KPi pH 8.0. As to the method:
The activity of the 7β-HSDH and of the mutants was determined using a photometric assay, where the decrease in absorbance was measured at 340 nm over a period of 30 seconds.
The expression [R64E] in the first column of the table means that the arginine (R) in position 64 of the protein sequence had been replaced by glutamic acid (E) in the mutant in question. The respective amino acid is abbreviated using the international one-letter code. Analogously, [R64D] means that an aspartic acid has been introduced at this position.
B4 registered a Specific activity of 32.1 U/mg and a Volumetric activity of 641.6 U/ml.

B5: the Specific activity is 9.7 U/mg and the Volumetric activity turned out to be 220.3 U/ml.

B6 returned a Specific activity of 10.5 U/mg and a Volumetric activity of 216 U/ml.

The molecule B7 registered a Specific activity of 20.1 U/mg and a Volumetric activity of 333.7 U/ml.

Molecule B8 registered a Specific activity of 0.6 U/mg and a Volumetric activity of 3.4 U/ml.

Consider B9, for which the Specific activity came to 15.1 U/mg and the Volumetric activity amounted to 407.7 U/ml.

As to B10, the Specific activity was 9.83 U/mg and the Volumetric activity is recorded as 171 U/ml.

In turn, B11 came in with a Specific activity of 15.1 U/mg and a Volumetric activity of 296.5 U/ml.

Regarding B12, the Specific activity amounted to 13.77 U/mg and the Volumetric activity came out at 273 U/ml.

Regarding B13, the Specific activity was determined as 12.36 U/mg and the Volumetric activity is given as 223 U/ml.

Regarding B14, the Specific activity stood at 19.1 U/mg and the Volumetric activity worked out at 402.0 U/ml.

In turn, B15 came in with a Specific activity of 14.19 U/mg and a Volumetric activity of 269.7 U/ml.

B16 returned a Specific activity of 10.1 U/mg and a Volumetric activity of 214 U/ml.

In turn, B17 came in with a Specific activity of 27.4 U/mg and a Volumetric activity of 450.5 U/ml.

B18: the Specific activity amounted to 20.9 U/mg and the Volumetric activity is on record as 334 U/ml.

Molecule B19 displayed a Specific activity of 60.2 U/mg and a Volumetric activity of 892.7 U/ml.

The same data set, now with this note: Table 9, variants modified at position 17.
As for B20, the Specific activity came out at 17.2 U/mg and the Volumetric activity is on record as 580 U/ml.

The same data set, now with this note: qualitative statement.
Take B4: the “activity compared with the wild-type enzyme” value is on record as “increase in the specific activity”.

Turning to B17, the “activity compared with the wild-type enzyme” value is given as “increase in the specific activity”.

In the case of B19, the “activity compared with the wild-type enzyme” value is reported as “increase in the specific activity”.

The same data set, now with this note: text of example 3, position 39.
As for B21, the Volumetric activity was 735 U/ml.

Still in this data set, the particulars now being: text of example 3, position 39; per mg protein.
Take B21: the specific enzymatic activity was 52.9 U/mg.

The next data set addresses 7β-HSDH obtainable from Collinsella aerofaciens DSM 3979 (Collinsella aerofaciens, UniProt A4ECA9).
Assay: not given
The note with it: cited from earlier work.
On to `C[C@H](CCC(=O)O)[C@H]1CC[C@H]2[C@@H]3C(=O)C[C@@H]4C[C@H](O)CC[C@]4(C)[C@H]3CC[C@]12C` [Mutant 7-Keto-LCA, 7-keto-lithocholic acid], for which the Vmax is 30.77 U/mg Protein and the kcat is recorded as 950.77.

`NC(=O)C1=CN([C@@H]2O[C@H](COP(=O)(O)OP(=O)(O)OC[C@H]3O[C@@H](n4cnc5c(N)ncnc54)[C@H](OP(=O)(O)O)[C@@H]3O)[C@@H](O)[C@H]2O)C=CC1` [NADPH]: the Vmax is 33.44 U/mg Protein and the kcat is on record as 1033.44.

Take `C[C@H](CCC(=O)O)[C@H]1CC[C@H]2[C@@H]3[C@@H](O)C[C@@H]4C[C@H](O)CC[C@]4(C)[C@H]3CC[C@]12C` [UDCA, Ursodeoxycholic acid]: the kcat is on record as 1179.39.

System in a further data set: not listed separately
Nature of the data set: Cofactor specificity of 7β-HSDH types (compilation of improvements). The class given is biochemical.
Settings: not given
Take B19: the Cofactor specificity entry is “NADPH”.

Turning to B21, the Cofactor specificity entry was “NADPH”.

In general, Km refers to the substrate concentration at which the rate is half of its maximum.
